Measurements published in the supplement of paper PMC11865577.

Columns and labels:
Experiment in all cases: pull-down binding Z-score (relative to library population); higher = stronger binding
[1] = test system: TO-3-N3 (biotin conjugate); conditions: RNA library: Library-2
Summary of the method: (§1)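 Streptavidin beads with 100 pmol of biotin-conjugated small molecule were incubated for 60 min at 25 °C with 1 μg of heat-folded Cy5- or Cy3-end-labelled RNA library in phosphate/NaCl/KCl buffer. Bound RNA was eluted in hot SDS after three washes and hybridised to a DNA barcode microarray at 55.5 °C for 20 h. Each binding score is a library-referenced Z-score, computed after beads-only subtraction and a trimmed mean of barcoded replicate probes.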

[2] = test system: TO-3-N3-2 (biotin conjugate); conditions: RNA library: Library-2
Summary of the method: as §1

[3] = test system: TO-N3-2 (biotin conjugate); conditions: RNA library: Library-2
Summary of the method: as §1

[4] = test system: TO-N3 (biotin conjugate); conditions: RNA library: Library-2
Summary of the method: as §1

[5] = test system: G-clamp-N3 (biotin conjugate); conditions: RNA library: Library-1 (pre-miRNA loops + repeats)
Summary of the method: as §1

## GUGGAGUCGGGUCAGACUUCAA [hsa-mir-378c]
[1]
  pull-down binding Z-score: -0.461
[2]
  pull-down binding Z-score: -0.477
[3]
  pull-down binding Z-score: 0.384
[4]
  pull-down binding Z-score: -0.0868
[5]
  pull-down binding Z-score: -1.13

## GUGGCCUUGGACAAGCCUCUUGGUUAC [hsa-mir-4672]
[1]
  pull-down binding Z-score: -0.457
[2]
  pull-down binding Z-score: -0.502
[3]
  pull-down binding Z-score: 0.885
[4]
  pull-down binding Z-score: -0.141
[5]
  pull-down binding Z-score: -0.419

## GUGGCUAAUCAGCUGAUGGUGCCAC [hsa-mir-4715]
[1]
  pull-down binding Z-score: -0.0716
[2]
  pull-down binding Z-score: -0.511
[3]
  pull-down binding Z-score: -0.545
[4]
  pull-down binding Z-score: -0.26
[5]
  pull-down binding Z-score: -0.109

## GUGGCUUCAACCAAGUUCAAAGUCAC [hsa-mir-3186]
[1]
  pull-down binding Z-score: -0.304
[2]
  pull-down binding Z-score: -0.378
[3]
  pull-down binding Z-score: -0.383
[4]
  pull-down binding Z-score: -0.441
[5]
  pull-down binding Z-score: -1.08

## GUGGCUUGUGGCUGAGUGUCACGCUGC [hsa-mir-6068]
[1]
  pull-down binding Z-score: -0.567
[2]
  pull-down binding Z-score: -0.233
[3]
  pull-down binding Z-score: 0.225
[4]
  pull-down binding Z-score: -0.254
[5]
  pull-down binding Z-score: 0.217

## GUGGGUCAAGUUUAGAGAUGCACCAAC [hsa-mir-490]
[1]
  pull-down binding Z-score: 1.32
[2]
  pull-down binding Z-score: 0.519
[3]
  pull-down binding Z-score: 1.5
[4]
  pull-down binding Z-score: 1.43
[5]
  pull-down binding Z-score: 0.572

## GUGGGUUGUGAGGACUGAGGCCAGACCCAC [hsa-mir-181d]
[1]
  pull-down binding Z-score: -0.504
[2]
  pull-down binding Z-score: -0.244
[3]
  pull-down binding Z-score: 0.803
[4]
  pull-down binding Z-score: -0.139
[5]
  pull-down binding Z-score: 1.5

## GUGGUGGGCACUGCUGGGGUGGGCACAGCAGCCAUGCAGAGCGGGCAUUUGACCCCGUGCCACCCUUUUCCCCAG [hsa-mir-1227]
[1]
  pull-down binding Z-score: 2.64
[2]
  pull-down binding Z-score: 1.89
[3]
  pull-down binding Z-score: 2.64
[4]
  pull-down binding Z-score: 3.14
[5]
  pull-down binding Z-score: 0.221

## GUGGUUUCAGGGCAGUGAUGUUGCCCCUCGGAAGAUAACUAU [hsa-let-7b]
[1]
  pull-down binding Z-score: -0.324
[2]
  pull-down binding Z-score: -0.113
[3]
  pull-down binding Z-score: 0.235
[4]
  pull-down binding Z-score: -0.128
[5]
  pull-down binding Z-score: 0.231

## GUGUACAGGGAGGAGACUGUACGUGAGAGAUAGUCAGAUCCGCAUGUUAGAGCAGAGUCUCCUUCGUGUACAG [hsa-mir-4441]
[1]
  pull-down binding Z-score: -0.779
[2]
  pull-down binding Z-score: -0.183
[3]
  pull-down binding Z-score: 0.631
[4]
  pull-down binding Z-score: -0.184
[5]
  pull-down binding Z-score: 0.459

## GUGUACCUCAUGUGUGUACAC [hsa-mir-5692a-2_5692a-1]
[1]
  pull-down binding Z-score: -0.584
[2]
  pull-down binding Z-score: -0.344
[3]
  pull-down binding Z-score: 0.335
[4]
  pull-down binding Z-score: -0.563
[5]
  pull-down binding Z-score: -0.853

## GUGUAGAGGCGGAGCACAG [hsa-mir-1471]
[1]
  pull-down binding Z-score: 0.151
[2]
  pull-down binding Z-score: 0.381
[3]
  pull-down binding Z-score: 1.46
[4]
  pull-down binding Z-score: 0.847
[5]
  pull-down binding Z-score: 0.507

## GUGUAGGGGUGGCUACAC [hsa-mir-4717]
[1]
  pull-down binding Z-score: 0.385
[2]
  pull-down binding Z-score: 0.281
[3]
  pull-down binding Z-score: 0.235
[4]
  pull-down binding Z-score: 0.346
[5]
  pull-down binding Z-score: 0.957

## GUGUAUGGGCUGAGCCUUGC [hsa-mir-6805]
[1]
  pull-down binding Z-score: -0.021
[2]
  pull-down binding Z-score: 0.0312
[3]
  pull-down binding Z-score: 0.868
[4]
  pull-down binding Z-score: 0.44
[5]
  pull-down binding Z-score: 0.279

## GUGUCCUGAAAUUCACAGGACUG [hsa-mir-4700]
[1]
  pull-down binding Z-score: 0.856
[2]
  pull-down binding Z-score: 0.237
[3]
  pull-down binding Z-score: 0.643
[4]
  pull-down binding Z-score: 0.923
[5]
  pull-down binding Z-score: 1.38

## GUGUCCUUUCUUCUGAGAGCUGGACAC [hsa-mir-6500]
[1]
  pull-down binding Z-score: -0.375
[2]
  pull-down binding Z-score: -0.39
[3]
  pull-down binding Z-score: -0.336
[4]
  pull-down binding Z-score: -0.527
[5]
  pull-down binding Z-score: 0.00177

## GUGUCGCCCCACGAGGGGGACUGU [hsa-mir-4322]
[1]
  pull-down binding Z-score: -0.00462
[2]
  pull-down binding Z-score: -0.362
[3]
  pull-down binding Z-score: 0.483
[4]
  pull-down binding Z-score: 0.327
[5]
  pull-down binding Z-score: -0.152

## GUGUCUGGAGACGCCAGGCAGC [hsa-mir-4323]
[1]
  pull-down binding Z-score: -0.154
[2]
  pull-down binding Z-score: -0.352
[3]
  pull-down binding Z-score: 1.13
[4]
  pull-down binding Z-score: 0.127
[5]
  pull-down binding Z-score: -0.529

## GUGUCUGGCCCCAGCAGCCCAGACU [hsa-mir-6751]
[1]
  pull-down binding Z-score: 0.258
[2]
  pull-down binding Z-score: -0.171
[3]
  pull-down binding Z-score: 1.39
[4]
  pull-down binding Z-score: 0.766
[5]
  pull-down binding Z-score: -0.568

## GUGUGGAGAGAGCACUGAGCCUGCCCACC [hsa-mir-6849]
[1]
  pull-down binding Z-score: -0.134
[2]
  pull-down binding Z-score: -0.152
[3]
  pull-down binding Z-score: 1.45
[4]
  pull-down binding Z-score: 0.55
[5]
  pull-down binding Z-score: -0.498

## GUGUGUGGCGUGGGUGCUGCGGGGCCGUCAGGGUGCCUGCGGGACGCUCAC [hsa-mir-6765]
[1]
  pull-down binding Z-score: 0.665
[2]
  pull-down binding Z-score: 0.334
[3]
  pull-down binding Z-score: 1.73
[4]
  pull-down binding Z-score: 1.13
[5]
  pull-down binding Z-score: 1.58

## GUGUGUUACCUAGAAAUAGCACU [hsa-mir-378a]
[1]
  pull-down binding Z-score: -0.283
[2]
  pull-down binding Z-score: -0.165
[3]
  pull-down binding Z-score: -0.118
[4]
  pull-down binding Z-score: -0.282
[5]
  pull-down binding Z-score: -1.11

## GUGUUCACACAUAAUGUGUACACCAUGUGUGUACAC [hsa-mir-5692b]
[1]
  pull-down binding Z-score: 0.192
[2]
  pull-down binding Z-score: -0.272
[3]
  pull-down binding Z-score: -0.606
[4]
  pull-down binding Z-score: 0.022
[5]
  pull-down binding Z-score: -0.31

## GUGUUGGGUAUAAGUAACA [hsa-mir-1270]
[1]
  pull-down binding Z-score: -0.205
[2]
  pull-down binding Z-score: 0.157
[3]
  pull-down binding Z-score: 0.457
[4]
  pull-down binding Z-score: 0.257
[5]
  pull-down binding Z-score: -0.877

## GUGUUUAUUUUUUACUAAAUAG [hsa-mir-4766]
[1]
  pull-down binding Z-score: -0.515
[2]
  pull-down binding Z-score: 0.102
[3]
  pull-down binding Z-score: -0.723
[4]
  pull-down binding Z-score: -0.451
[5]
  pull-down binding Z-score: -0.918

## GUGUUUGUGACAUAAUUUGU [hsa-mir-325]
[1]
  pull-down binding Z-score: 0.174
[2]
  pull-down binding Z-score: 0.252
[3]
  pull-down binding Z-score: -0.231
[4]
  pull-down binding Z-score: 0.0205
[5]
  pull-down binding Z-score: -1.02

## GUGUUUUCUCCUUUAGAGAGAGCUG [hsa-mir-4299]
[1]
  pull-down binding Z-score: -0.542
[2]
  pull-down binding Z-score: -0.23
[3]
  pull-down binding Z-score: 0.309
[4]
  pull-down binding Z-score: -0.257
[5]
  pull-down binding Z-score: 0.765

## GUUACUAAUCUAACUAAUUGUAAC [hsa-mir-582]
[1]
  pull-down binding Z-score: 0.0863
[2]
  pull-down binding Z-score: 0.0952
[3]
  pull-down binding Z-score: -0.722
[4]
  pull-down binding Z-score: 0.00217
[5]
  pull-down binding Z-score: 1.11

## GUUACUGUGGGAACUGGAGGUAAC [hsa-mir-132]
[1]
  pull-down binding Z-score: 0.839
[2]
  pull-down binding Z-score: 0.489
[3]
  pull-down binding Z-score: 0.708
[4]
  pull-down binding Z-score: 1.1
[5]
  pull-down binding Z-score: 2.34

## GUUAGACCUGGCCCUCUGUCUAAU [hsa-mir-429]
[1]
  pull-down binding Z-score: 0.355
[2]
  pull-down binding Z-score: -0.136
[3]
  pull-down binding Z-score: 0.3
[4]
  pull-down binding Z-score: 0.564
[5]
  pull-down binding Z-score: -0.787

## GUUAGUUGUGGACACAUACUAAC [hsa-mir-3912]
[1]
  pull-down binding Z-score: -0.764
[2]
  pull-down binding Z-score: -0.735
[3]
  pull-down binding Z-score: -1.25
[4]
  pull-down binding Z-score: -1.19
[5]
  pull-down binding Z-score: -0.0574

## GUUCAGAGUCUGUUUUUGUCUAGC [hsa-mir-29c]
[1]
  pull-down binding Z-score: -0.508
[2]
  pull-down binding Z-score: 0.0089
[3]
  pull-down binding Z-score: -0.0332
[4]
  pull-down binding Z-score: -0.313
[5]
  pull-down binding Z-score: -0.124

## GUUCCUGUGAUUUUUC [hsa-mir-198]
[1]
  pull-down binding Z-score: -0.267
[2]
  pull-down binding Z-score: -0.212
[3]
  pull-down binding Z-score: -0.289
[4]
  pull-down binding Z-score: -0.29
[5]
  pull-down binding Z-score: -0.819

## GUUCGCUUAAUUUAUGACGAAUC [hsa-mir-487a]
[1]
  pull-down binding Z-score: -0.221
[2]
  pull-down binding Z-score: -0.215
[3]
  pull-down binding Z-score: -0.483
[4]
  pull-down binding Z-score: -0.395
[5]
  pull-down binding Z-score: 0.269

## GUUCGGGGGUUCCGACGGCGAC [hsa-mir-6790]
[1]
  pull-down binding Z-score: 2.61
[2]
  pull-down binding Z-score: 0.957
[3]
  pull-down binding Z-score: 1.76
[4]
  pull-down binding Z-score: 2.67
[5]
  pull-down binding Z-score: 3.09

## GUUGAAAAAUAUCUAUGUAUUAGUAAAC [hsa-mir-649]
[1]
  pull-down binding Z-score: -0.0443
[2]
  pull-down binding Z-score: -0.281
[3]
  pull-down binding Z-score: -0.74
[4]
  pull-down binding Z-score: -0.151
[5]
  pull-down binding Z-score: -0.475

## GUUGACUGUUGAAUCUCAUGGCAAC [hsa-mir-21]
[1]
  pull-down binding Z-score: -0.114
[2]
  pull-down binding Z-score: -0.186
[3]
  pull-down binding Z-score: 0.204
[4]
  pull-down binding Z-score: 0.0029
[5]
  pull-down binding Z-score: -0.474
